Results as given in patent US20260209386A1 (MYTHIC THERAPEUTICS, published 2026).

T1: Human PTK7 Protein, His Tag (Acro Biosystems) (human, UniProt Q13308 31-704)
T1 construct: Bought His-tagged protein; also called CCK4; not shown: His tag
T1 sequence: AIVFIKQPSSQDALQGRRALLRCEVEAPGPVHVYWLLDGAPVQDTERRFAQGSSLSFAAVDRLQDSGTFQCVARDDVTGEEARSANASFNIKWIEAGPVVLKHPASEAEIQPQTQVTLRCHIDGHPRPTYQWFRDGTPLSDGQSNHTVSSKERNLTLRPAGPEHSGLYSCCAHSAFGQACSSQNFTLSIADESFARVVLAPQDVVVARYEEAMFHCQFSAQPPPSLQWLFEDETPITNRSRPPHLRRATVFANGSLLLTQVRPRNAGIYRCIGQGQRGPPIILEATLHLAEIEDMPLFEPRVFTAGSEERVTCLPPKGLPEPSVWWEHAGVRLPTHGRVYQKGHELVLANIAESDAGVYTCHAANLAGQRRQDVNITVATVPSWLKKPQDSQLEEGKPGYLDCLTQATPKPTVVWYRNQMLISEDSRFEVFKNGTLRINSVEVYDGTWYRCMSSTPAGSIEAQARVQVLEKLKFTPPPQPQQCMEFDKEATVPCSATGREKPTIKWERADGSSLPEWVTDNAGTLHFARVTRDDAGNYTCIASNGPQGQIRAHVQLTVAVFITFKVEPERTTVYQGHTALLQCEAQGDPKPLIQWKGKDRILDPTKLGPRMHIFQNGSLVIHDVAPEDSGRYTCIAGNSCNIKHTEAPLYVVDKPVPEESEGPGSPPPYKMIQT

T2: Human PTK7 (human, UniProt Q13308 31-1070)
T2 sequence: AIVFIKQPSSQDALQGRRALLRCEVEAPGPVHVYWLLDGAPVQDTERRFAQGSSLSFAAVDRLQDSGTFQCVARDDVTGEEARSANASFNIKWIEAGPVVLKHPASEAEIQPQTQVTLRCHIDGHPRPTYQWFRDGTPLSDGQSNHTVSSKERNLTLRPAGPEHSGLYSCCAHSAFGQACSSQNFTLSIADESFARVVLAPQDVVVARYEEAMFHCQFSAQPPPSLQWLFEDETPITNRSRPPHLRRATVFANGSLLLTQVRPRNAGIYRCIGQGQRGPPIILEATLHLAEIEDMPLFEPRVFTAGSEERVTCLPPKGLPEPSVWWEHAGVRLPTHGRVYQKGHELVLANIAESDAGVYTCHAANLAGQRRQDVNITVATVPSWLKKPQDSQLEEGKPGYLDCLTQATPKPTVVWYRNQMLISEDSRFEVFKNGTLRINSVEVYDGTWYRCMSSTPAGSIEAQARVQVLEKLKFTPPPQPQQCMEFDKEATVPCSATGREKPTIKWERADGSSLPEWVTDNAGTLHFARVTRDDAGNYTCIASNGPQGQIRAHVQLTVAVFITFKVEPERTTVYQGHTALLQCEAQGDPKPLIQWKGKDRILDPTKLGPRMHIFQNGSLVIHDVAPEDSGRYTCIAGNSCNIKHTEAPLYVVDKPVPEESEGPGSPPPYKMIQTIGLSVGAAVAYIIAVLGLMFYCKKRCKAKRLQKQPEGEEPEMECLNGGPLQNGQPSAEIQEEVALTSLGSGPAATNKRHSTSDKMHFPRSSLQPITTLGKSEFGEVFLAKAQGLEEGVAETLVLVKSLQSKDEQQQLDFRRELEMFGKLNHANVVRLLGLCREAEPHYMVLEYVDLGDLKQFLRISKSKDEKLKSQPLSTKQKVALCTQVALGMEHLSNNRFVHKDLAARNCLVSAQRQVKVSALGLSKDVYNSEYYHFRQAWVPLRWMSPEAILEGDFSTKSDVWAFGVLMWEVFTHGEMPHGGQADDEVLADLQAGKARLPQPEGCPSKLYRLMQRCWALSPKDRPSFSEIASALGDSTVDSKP


Molecular target: T1, Human PTK7 Protein, His Tag (Acro …)
Experiment: BLI (Octet), antibody on anti-human Fc sensor, 50 nM PTK7; grade 2 = substantially similar binding relative to parent

Binder	binding result
MYT11027 (antibody, V domains shown, MYT9361 HC variant) VH: EVQLVESGGGLVQPGGSLRLSCTASHLSLSSYWMSWVRQAPGKGLEWVGVISAGGNTYYANWAKGRFTISRDTSKNTVYLQMNSLRAEDTAVYFCARGDDGYTNAAYVSNLWGQGTLVTVSS VL: EIVMTQSPSTLSASVGDRVIITCQASQSISSWLSWYQQKPGKAPKLLIYKASTLASGVPSRFSGSGSGAEFTLTISSLQPDDFATYYCQSYFDSTTIAFGQGTKLTVL	binds
MYT11028 (antibody, V domains shown, MYT9361 HC variant) VH: EVQLVESGGGLVQPGGSLRLSCTASGHSLSSYWMSWVRQAPGKGLEWVGVISAGGNTYYANWAKGRFTISRDTSKNTVYLQMNSLRAEDTAVYFCARGDDGYTNAAYVSNLWGQGTLVTVSS VL: EIVMTQSPSTLSASVGDRVIITCQASQSISSWLSWYQQKPGKAPKLLIYKASTLASGVPSRFSGSGSGAEFTLTISSLQPDDFATYYCQSYFDSTTIAFGQGTKLTVL	binds
MYT11029 (antibody, V domains shown, MYT9361 HC variant) VH: EVQLVESGGGLVQPGGSLRLSCTASGLHLSSYWMSWVRQAPGKGLEWVGVISAGGNTYYANWAKGRFTISRDTSKNTVYLQMNSLRAEDTAVYFCARGDDGYTNAAYVSNLWGQGTLVTVSS VL: EIVMTQSPSTLSASVGDRVIITCQASQSISSWLSWYQQKPGKAPKLLIYKASTLASGVPSRFSGSGSGAEFTLTISSLQPDDFATYYCQSYFDSTTIAFGQGTKLTVL	binds
MYT11030 (antibody, V domains shown, MYT9361 HC variant) VH: EVQLVESGGGLVQPGGSLRLSCTASGLSHSSYWMSWVRQAPGKGLEWVGVISAGGNTYYANWAKGRFTISRDTSKNTVYLQMNSLRAEDTAVYFCARGDDGYTNAAYVSNLWGQGTLVTVSS VL: EIVMTQSPSTLSASVGDRVIITCQASQSISSWLSWYQQKPGKAPKLLIYKASTLASGVPSRFSGSGSGAEFTLTISSLQPDDFATYYCQSYFDSTTIAFGQGTKLTVL	binds
MYT11031 (antibody, V domains shown, MYT9361 HC variant) VH: EVQLVESGGGLVQPGGSLRLSCTASGLSLHSYWMSWVRQAPGKGLEWVGVISAGGNTYYANWAKGRFTISRDTSKNTVYLQMNSLRAEDTAVYFCARGDDGYTNAAYVSNLWGQGTLVTVSS VL: EIVMTQSPSTLSASVGDRVIITCQASQSISSWLSWYQQKPGKAPKLLIYKASTLASGVPSRFSGSGSGAEFTLTISSLQPDDFATYYCQSYFDSTTIAFGQGTKLTVL	binds

Molecular target: T2, Human PTK7
Experiment: cell-based or functional assay

Binder	Internalization, FOW @ 25 nM (fold over the wildtype, parental antibody)
MYT11321 (antibody, V domains shown) VH: EVQLVESGGGLVQPGGSLRLSCTASGIDLSRYSMGWVRQAPGKGLEWVGIISYGGSTYYASWAKGRFTISRDTSKNTVYLQMNSLRAEDTAVYFCARVGYPGYSGYGYAFDAFDPWGQGTLVTVSS VL: EIVMTQSPSTLSASVGDRVIITCQSSKSVYNDNWLSWYQQKPGKAPKLLIYGASTHASGVPSRFSGSGSGAEFTLTISSLQPDDFATYYCAGGYSSSSDNGFGQGTKLTVL	1.36 fold over parental antibody
MYT11324 (antibody, V domains shown) VH: EVQLVESGGGLVQPGGSLRLSCTASGIDLSRYSMGWVRQAPGKGLEWVGIISYGGSTYYASWAKGRFTISRDTSKNTVYLQMNSLRAEDTAVYFCARVGYPGYSGYGYAFDAFDPWGQGTLVTVSS VL: EIVMTQSPSTLSASVGDRVIITCQSSKSVYNDNWLSWYQQKPGKAPKLLIYGASTLASGVPSRFSGSGSGAEFTLTISSLQPDDFATYYCHGGYSSSSDNGFGQGTKLTVL	1.58 fold over parental antibody
MYT11326 (antibody, V domains shown) VH: EVQLVESGGGLVQPGGSLRLSCTASGIDLSRYSMGWVRQAPGKGLEWVGIISYGGSTYYASWAKGRFTISRDTSKNTVYLQMNSLRAEDTAVYFCARVGYPGYSGYGYAFDAFDPWGQGTLVTVSS VL: EIVMTQSPSTLSASVGDRVIITCQSSKSVYNDNWLSWYQQKPGKAPKLLIYGASTLASGVPSRFSGSGSGAEFTLTISSLQPDDFATYYCAGHYSSSSDNGFGQGTKLTVL	1.29 fold over parental antibody
MYT11327 (antibody, V domains shown) VH: EVQLVESGGGLVQPGGSLRLSCTASGIDLSRYSMGWVRQAPGKGLEWVGIISYGGSTYYASWAKGRFTISRDTSKNTVYLQMNSLRAEDTAVYFCARVGYPGYSGYGYAFDAFDPWGQGTLVTVSS VL: EIVMTQSPSTLSASVGDRVIITCQSSKSVYNDNWLSWYQQKPGKAPKLLIYGASTLASGVPSRFSGSGSGAEFTLTISSLQPDDFATYYCAGGHSSSSDNGFGQGTKLTVL	1.6 fold over parental antibody
MYT11328 (antibody, V domains shown) VH: EVQLVESGGGLVQPGGSLRLSCTASGIDLSRYSMGWVRQAPGKGLEWVGIISYGGSTYYASWAKGRFTISRDTSKNTVYLQMNSLRAEDTAVYFCARVGYPGYSGYGYAFDAFDPWGQGTLVTVSS VL: EIVMTQSPSTLSASVGDRVIITCQSSKSVYNDNWLSWYQQKPGKAPKLLIYGASTLASGVPSRFSGSGSGAEFTLTISSLQPDDFATYYCAGGYHSSSDNGFGQGTKLTVL	1.99 fold over parental antibody
MYT11331 (antibody, V domains shown) VH: EVQLVESGGGLVQPGGSLRLSCTASGIDLSRYSMGWVRQAPGKGLEWVGIISYGGSTYYASWAKGRFTISRDTSKNTVYLQMNSLRAEDTAVYFCARVGYPGYSGYGYAFDAFDPWGQGTLVTVSS VL: EIVMTQSPSTLSASVGDRVIITCQSSKSVYNDNWLSWYQQKPGKAPKLLIYGASTLASGVPSRFSGSGSGAEFTLTISSLQPDDFATYYCAGGYSSSHDNGFGQGTKLTVL	1.77 fold over parental antibody
MYT11332 (antibody, V domains shown) VH: EVQLVESGGGLVQPGGSLRLSCTASGIDLSRYSMGWVRQAPGKGLEWVGIISYGGSTYYASWAKGRFTISRDTSKNTVYLQMNSLRAEDTAVYFCARVGYPGYSGYGYAFDAFDPWGQGTLVTVSS VL: EIVMTQSPSTLSASVGDRVIITCQSSKSVYNDNWLSWYQQKPGKAPKLLIYGASTLASGVPSRFSGSGSGAEFTLTISSLQPDDFATYYCAGGYSSSSHNGFGQGTKLTVL	1.77 fold over parental antibody
MYT11337 (antibody, V domains shown) VH: EVQLVESGGGLVQPGGSLRLSCTASGIDLSRYSMGWVRQAPGKGLEWVGIISYGGSTYYASWAKGRFTISRDTSKNTVYLQMNSLRAEDTAVYFCARVGYPGYSGYGYAFDAFDPWGQGTLVTVSS VL: EIVMTQSPSTLSASVGDRVIITCQSSKSVYNDNWLSWYQQKPGKAPKLLIYGASTLASGVPSRFSGSGSGAEFTLTISSLQPDDFATYYCAGGYSSSSANGFGQGTKLTVL	1.68 fold over parental antibody
MYT11346 (antibody, V domains shown) VH: EVQLVESGGGLVQPGGSLRLSCTASGIDLSNYHVIWVRQAPGKGLEWVGIIYTYDTTYYANWAKGRFTISRDTSKNTVYLQMNSLRAEDTAVYFCARSFSDISDLIKLWGQGTLVTVSS VL: EIVMTQSPSTLSASVGDRVIITCQASQSLYNNKDLAWYQQKPGKAPKLLIYEASKLASGVPSRFSGSGSGAEFTLTISSLQPDDFATYYCLGEFSCGSGDCLAFGQGTKLTVL	1.16 fold over parental antibody
MYT11418 (antibody, V domains shown) VH: EVQLVESGGGLVQPGGSLRLSCTASGIDLSNYAVIWVRQAPGKGLEWVGIIYTYDTTYYANWAKGRFTISRDTSKNTVYLQMNSLRAEDTAVYFCARSFSDISDLIKLWGQGTLVTVSS VL: EIVMTQSPSTLSASVGDRVIITCQASQSLYNNKDLAWYQQKPGKAPKLLIYAASKLASGVPSRFSGSGSGAEFTLTISSLQPDDFATYYCLGEFSCGSGDCLAFGQGTKLTVL	1.19 fold over parental antibody
